Reference: the RNAGym collection of RNA variant scans (doi:10.7554/elife.90254)

B1: LINE1-full (parent)
chain: UACGUAGGUGGUUUUCCCCUGAUAGUGCUAAGGGGGCCUGGAAGUUUGGACUGGGCAGAGCUCAACACAGCGUGGCAAAGUGGCUGUGGCUAGACUGCCUCUCUGGAUUCCUCGUCACUCAGCAGGGCAUCUCUGAGAGAAAUGCC

Variants of: B1
Assay: self-cleavage, relative activity (ratio to wild type); higher = more cleavage; in vitro, sequencing; the parent is a self-cleaving ribozyme

Point of comparison: G35A U130A, self-cleavage 1.1. Against it:
- U62C U102C — lower, 0.06
- G32A U108C — lower, 0.76
- G33C — higher, 1.17
- A77G U134C — higher, 2.54
- A2G U134A — higher, 1.38
- G36C C71G — lower, 0.15
- A42G U132C — higher, 1.48
- U12C U119C — higher, 1.64
- G33C U45C — higher, 1.95
- U87C A140U — lower, 0.22
- U87C A140G — lower, 0.13
- G7A A138G — higher, 1.37
- U14A U46A — lower, 0.86
- G21U U45C — higher, 1.44
- A22U G49A — lower, 1.08
- A79G U130C — higher, 1.45
- A43G U134A — lower, 0.89
- G11A U20G — lower, 1.05
- G11A U20C — higher, 2.58
- G7C U52A — higher, 1.32
- G75A G105U — lower, 0.67
- U9A U26A — lower, 0.7
- U52A A59U — lower, 0.4
- A42C A92G — lower, 0.15
- U62C U91A — lower, 0.08
- U23A A121G — higher, 1.41
- U12A U73G — lower, 0.73
- U104C C113U — higher, 1.8
- U1G U13G — higher, 1.14
- A65G C116U — lower, 0.05
- U100C A141U — lower, 1.08
- A67C A136G — lower, 0.12
- U81A A141G — higher, 1.85
- U39C U112A — higher, 1.45
- A78U A140G — higher, 1.96
- U14A U109C — lower, 1.05
- A69U C99G — lower, 0.09
- U15C A77C — lower, 0.77
- A107G A142U — lower, 0.74
- G27U — lower, 0.97
- U81A U96C — lower, 0.13
- C38U U119C — higher, 1.47
- C84U U143C — lower, 0.1
- G86A A129G — lower, 0.05
- U87A U143C — lower, 0.11
- G33U A77G — higher, 1.78
- A24C A77G — higher, 2.76
- C101A A129G — lower, 0
- U13C G80A — higher, 1.48
- A79G G86A — lower, 0.09
- U14C G25C — lower, 0.5
- G44C U91C — lower, 0.14
- A50G C66A — lower, 0.06
- A94G U102A — lower, 0.27
- G25A A69G — lower, 0.41
- A129C U143C — higher, 1.74
- G60U A64U — lower, 0.05
- A22G U29A — higher, 1.24
- A67U G88U — lower, 0.02
- A67U U143C — lower, 0.2
- U5A A121G — lower, 0.84
- U23C A77U — higher, 1.36
- G80U U87C — lower, 0.2
- U45C C71U — lower, 0.98
- U5C U14C — lower, 0.99
- A107G G139U — higher, 2.42
- G21A C118U — lower, 1.07
- G36C A57U — lower, 0.07
- U9C G35C — higher, 1.43
- A22U A140G — lower, 0.71
- U9A A121C — lower, 0.46
- U87A U132G — lower, 0.1
- U9G U102A — higher, 1.44
- U5A U85G — lower, 0.16
- A65C A79G — lower, 0
- A69G G114A — lower, 0.99
- G58U U100C — lower, 0.09
- C99U U112A — higher, 1.12
- A6U A67G — lower, 0.49
- U13C A43U — higher, 1.29
- U20A C63U — lower, 0.45
- C63A A117G — lower, 0.08
- U12A A59U — lower, 0.56
- G55A A121G — lower, 0.26
- U9A U23A — lower, 0.36
- U52C U115A — higher, 1.34
- U47C C98U — lower, 0.52
- G114A A129U — higher, 1.33
- U81A A117G — higher, 2.29
- U46C A69C — lower, 0
- A121G A141G — higher, 1.65
- U112C A117C — higher, 1.38
- C61A A107G — lower, 0
- U52A C145U — higher, 1.6
- U52C A64U — lower, 0.45
- A57G U85A — lower, 0.13
- U12C U14G — lower, 0.59
- A69G U115C — lower, 0.88
- A50G U119A — lower, 0.96
- U9A A92U — lower, 0.73
- U12G A94G — lower, 0.42
- U39C A107C — higher, 2.09
- U73G U104C — higher, 2
- C61G U100C — lower, 0.06
- U26C G114U — higher, 1.49
- A64U U87G — lower, 0.11
- A31G U119A — higher, 1.39
- A65G G126A — lower, 0.02
- U12C A94U — lower, 0.38
- G40U G58A — lower, 0.02
- A117U U119C — higher, 1.73
- U29G G137U — lower, 1.04
- A6G U104C — higher, 1.23
- A43G G144A — higher, 1.39
- G10A U85C — lower, 0.09
- U20A G114A — higher, 1.4
- A79G G88A — lower, 0.03
- U91C A124G — lower, 0.33
- A24G A78U — higher, 2.33
- U130C U134G — lower, 0.54
- U15C G44A — higher, 1.41
- U29C G83A — lower, 0.43
- U47G G60A — lower, 0.02
- U9C C66U — lower, 0.08
- A57G U112C — lower, 0.68
- A107G U115G — lower, 0
- U96A G135A — lower, 0.03
- C3G U52A — lower, 0.8
- U46A U87C — lower, 0.19
- A69G U130A — lower, 0.39
- A79U U85A — lower, 0.07
- U112C G126A — higher, 1.64
- A30G A129G — lower, 0.72
- U26C G135A — higher, 1.65
- C18A A129G — higher, 1.42
- U102C U109C — higher, 1.38
- A22G U109A — higher, 1.13
- G41U A65G — lower, 0.03
- C16U A129G — higher, 1.25
- A31G U91A — lower, 0.3
- U12A A141G — higher, 1.19
- C18U U109A — lower, 0.9
- C76G U102C — higher, 2.25
- A138G C146A — higher, 1.17
- U39C U45C — higher, 1.54
- A78G C133U — higher, 1.27
- A92U U102A — lower, 0.79
- A65G A121C — lower, 0.07
- U109C U143A — higher, 1.18
- G32A G34A — lower, 0.73
- G41A U134G — lower, 0.98
- U5A A124G — higher, 1.75
- A65G U87C — lower, 0.16
- U85C G127U — lower, 0.14
- A30U C101U — higher, 1.35
- U5A U14A — higher, 1.15
- U119C A140G — higher, 1.88
- A43U U109A — higher, 1.38
- G34A A67C — lower, 0.03
- U9C C76G — higher, 2.04
- U81A G126U — higher, 2.04
- A22G A67G — lower, 0.63
- U119A G125U — lower, 1.07
- G125A G144A — higher, 1.33
- U26C A124G — lower, 0.64
- G7U A30G — lower, 0.78
